Reference: the supplement of paper PMC10899765

What was measured:
Settings in all cases: 20 nM; 72 h
[1] = tested on: MCF10A; assay: one-nucleolus phenotype percent effect (relative to siNT 0% and siNOL11 100%); higher = more cells with one nucleolus (ribosome biogenesis inhibition)
Description: (§1)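 After 72 h, cells were fixed and stained with Hoechst and anti-fibrillarin, and nucleoli per nucleus were counted with CellProfiler. Values are plate-adjusted percent effect for the one-nucleolus and 5+ nucleoli phenotypes, normalised to siNT (0%) and to the positive controls siNOL11 or siKIF11 (100%), as the mean of biological triplicates. Percent viability is the nuclei count relative to siNT.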

[2] = tested on: MCF10A; assay: percent viability (nuclei count relative to siNT); higher = more viable cells
Description: as §1

[3] = tested on: MCF10A; assay: 5+ nucleoli phenotype percent effect (relative to siNT 0% and siKIF11 100%); higher = more cells with five or more nucleoli
Description: as §1

Sequence | one-nucleolus phenotype percent effect [1] | percent viability [2] | 5+ nucleoli phenotype percent effect [3]
AUUGUCCCUCUCCCUUCCCAG [hsa-miR-4646-3p] | -0.307% | 50.3% | -1.47%
GCCUAUCACAUAUCUGCCUGU [hsa-miR-3927-5p] | -27.5% | 73.9% | 67.2%
UUCCACUGCCACUACCUAAUUU [hsa-miR-6509-3p] | -4.11% | 56.2% | -18.4%
UCUGCCCCCUCCGCUGCUGCCA [hsa-miR-1913] | -11.1% | 88.8% | 54.4%
UUAGUCUCAUGAUCAGACACA [hsa-miR-4474-5p] | -23.4% | 29.8% | 35.6%
AGUUAAUGAAUCCUGGAAAGU [hsa-miR-569] | 10.3% | 90.6% | -15.9%
AGCCUGUGCUUGUCCCUGCAG [hsa-miR-6811-3p] | 24.6% | 11.8% | -10.2%
ACUCUAGCUGCCAAAGGCGCU [hsa-miR-1251] | -4.32% | 80.4% | 11.2%
UGUCAGUUUGUCAAAUACCCCA [hsa-miR-223-3p] | -4.68% | 86.9% | 7.19%
CUGCAGAGUUUGUACGGACCGG [hsa-miR-3678-3p] | 10.8% | 66.6% | -37.4%
CCAGUGGGGCUGCUGUUAUCUG [hsa-miR-194-3p] | -11.8% | 138% | 10.5%
UUGGACGGUAAGGUUAAGCAA [hsa-miR-4804-5p] | 9.42% | 35.3% | -12.4%
UGAGGGACCCAGGACAGGAGA [hsa-miR-6875-5p] | 13.7% | 29% | -0.911%
UGAUUGUCUUCAUAUCUAGAAC [hsa-miR-4782-3p] | -0.93% | 62% | -13.9%
CAAAGUGCUUACAGUGCAGGUAG [hsa-miR-17-5p] | -20.9% | 71.5% | 27.3%
CCAAUAUUACUGUGCUGCUUUA [hsa-miR-16-2-3p] | -17.8% | 121% | 40.6%
GUGUUAAUUAAACCUCUAUUUAC [hsa-miR-2053] | -1.87% | 91.5% | 3.14%
GGGGUUCCUGGGGAUGGGAUUU [hsa-miR-23a-5p] | -14% | 103% | 40.3%
CCUCAAAUGUGGAGCACUAUUCU [hsa-miR-372-5p] | -27.9% | 140% | 77.2%
CCGCCUUCUCUCCUCCCCCAG [hsa-miR-6880-3p] | -31.4% | 117% | 65.6%

Sequence | one-nucleolus phenotype percent effect [1] | percent viability [2] | 5+ nucleoli phenotype percent effect [3]
GGGUCCCGGGGAGGGGGG [hsa-miR-4281] | -17.2% | 100% | 25.6%
UUGGACUUUUUCAGAUUUGGGGAU [hsa-miR-5009-5p] | 19.8% | 43.5% | -5.29%
UCUGUGAGACCAAAGAACUACU [hsa-miR-4677-3p] | 23.1% | 28.6% | -42.7%
CUGGGUGAGGGCAUCUGUGGU [hsa-miR-6736-5p] | 34.4% | 24.3% | -27%
GUGCCACCUUAACUGCAGCCAAU [hsa-miR-4715-3p] | 6.34% | 53.4% | -23.5%
AGGAGAAGUCGGGAAGGU [hsa-miR-5703] | -5.15% | 30.6% | 33.6%
UGGGGAGCGGCCCCCGGGUGGG [hsa-miR-1343-5p] | -31.1% | 86% | 48.5%
UCACUACCUGACAAUACAGU [hsa-miR-4999-3p] | -25.2% | 52.7% | 0.698%
AAUCAUGUGCAGUGCCAAUAUG [hsa-miR-96-3p] | 1.6% | 28.5% | 24.5%
GCCCGCGUGUGGAGCCAGGUGU [hsa-miR-1471] | -18.2% | 97.1% | 49.2%
CCUGUGGGCCACCUAGUCACCAA [hsa-miR-134-3p] | 8.84% | 44.8% | -15.2%
AGUGGGAGGACAGGAGGCAGGU [hsa-miR-6778-5p] | -2.52% | 26.7% | -9.05%
CUCUAGAGGGAAGCGCUUUCUG [hsa-miR-518e-5p] | -0.877% | 26.7% | 3.26%
UUAGGGAGUAGAAGGGUGGGGAG [hsa-miR-3162-5p] | 8.12% | 52.8% | -5.7%
CGGGGUUUUGAGGGCGAGAUGA [hsa-miR-193b-5p] | 25.4% | 46.7% | -32.1%
AUGGGUGAAUUUGUAGAAGGAU [hsa-miR-1262] | 17.3% | 27.2% | -20.4%
CAAAACUGGCAAUUACUUUUGC [hsa-miR-548a-3p] | -17.2% | 77.4% | 45.7%
UCUGGUGUAUAGCGUUGCUCA [hsa-miR-7978] | 19.2% | 27.6% | -4.49%
AGGAAGCCCUGGAGGGGCUGGAG [hsa-miR-671-5p] | 58.7% | 45.3% | -27.7%
UAAGGUGCAUCUAGUGCAGUUAG [hsa-miR-18b-5p] | 40.6% | 41.9% | -32.4%

Sequence | one-nucleolus phenotype percent effect [1] | percent viability [2] | 5+ nucleoli phenotype percent effect [3]
UGGGAACGGGUUCCGGCAGACGCUG [hsa-miR-1292-5p] | 13.5% | 60.3% | -16.7%
CAGGGUCAGCUGAGCAUG [hsa-miR-1178-5p] | 9.85% | 51.5% | 8.34%
GAGGUUUGGGGAGGAUUUGCU [hsa-miR-4748] | 39.1% | 24.1% | -23.1%
UCACAGUGGUCUCUGGGAUUAU [hsa-miR-216a-3p] | 8.32% | 29.5% | -17.5%
ACACAGUGCUUCAUCCACUACU [hsa-miR-3681-3p] | -4.5% | 76.6% | -3.88%
CUCACUGAUCAAUGAAUGCA [hsa-miR-181b-2-3p] | -19.1% | 144% | 9.62%
ACUCCAGUUUUAGUUCUCUUG [hsa-miR-3925-3p] | -22.1% | 63.4% | 38%
GCCUGGAGCUACUCCACCAUCUC [hsa-miR-4254] | 7% | 26.1% | 11.1%
UAAUUUUAUGUAUAAGCUAGU [hsa-miR-590-3p] | -23.9% | 121% | 34.3%
CAGUAACAAAGAUUCAUCCUUGU [hsa-miR-802] | -6.9% | 81.8% | -6.89%
UUGUUCUCAAACUGGCUGUCAGA [hsa-miR-7156-5p] | -16.5% | 46.2% | 25.8%
GAACGGCUUCAUACAGGAGUU [hsa-miR-337-5p] | 9.16% | 53.8% | -25.8%
ACUCCAUUUGUUUUGAUGAUGGA [hsa-miR-136-5p] | -13% | 107% | 34.2%
UGGGCCAGGGAGCAGCUGGUGGG [hsa-miR-4640-5p] | 15.3% | 54.9% | 7.66%
GGCUUGCAUGGGGGACUGG [hsa-miR-4327] | 12.4% | 40.2% | 7.45%
UUUCUGUCUUUUCUGGUCCAG [hsa-miR-4743-3p] | 57.9% | 17.7% | -25.7%
ACCUGCCAGCACCUCCCUGCAG [hsa-miR-4722-3p] | 10.5% | 53.9% | -32.2%
CACGGCAAAAGAAACAAUCCA [hsa-miR-4445-3p] | -16.4% | 52.2% | 25.7%
UGCAACUUACCUGAGUCAUUGA [hsa-miR-891b] | 1.72% | 41.4% | -7.44%
